The text below walks through data of the supplement of paper PMC10567573.

To fix the notation:
B1: RHOBTB3 (parent)
chain: VSHVFMLLFNVKSPTDIQDSSIIR
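Further: lentivirally expressed fusions sorted by FACS into six bins by GFP to DsRed ratio, PSI derived from sequencing read proportions per bin multiplied by bin number.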

In the series the parent is B1. As to the kind of experiment: protein stability index of a GFP-peptide fusion (GPS, HEK-293T) (PSI 1-6); higher = more stable. The following applies: c terminus: a fixed tail appended.
With VSHVFMLLFNVKSPTDIQFSSIIR [D19F], the protein stability index was found to be 2.28. Under VSHVFMLLFNVKSPTDIQMSSIIR [D19M] stands 4.57. Regarding VSHVFMLLFNVKSPTDIQKSSIIR [D19K], the protein stability index worked out at 2.3.

On to VSHVFMLLFNVKSPTDIQSSSIIR [D19S], for which the protein stability index was 2.93. On to VSHVFMLLFNVKSPTDIQASSIIR [D19A], for which the protein stability index turned out to be 3.48. Take VSHVFMLLFNVKSPTDIQNSSIIR [D19N]: the protein stability index turned out to be 2.96.

As for VSHVFMLLFNVKSPTDIQHSSIIR [D19H], the protein stability index is 3.04. As to VSHVFMLLFNVKSPTDIQTSSIIR [D19T], the protein stability index is 3.05.

For the variant VSHVFMLLFNVKSPTDIQRSSIIR [D19R], the protein stability index was 3.06. Regarding VSHVFMLLFNVKSPTDIQESSIIR [D19E], the protein stability index was determined as 3.13.

For VSHVFMLLFNVKSPTDIQISSIIR [D19I], the protein stability index came to 3.28. As for VSHVFMLLFNVKSPTDIQPSSIIR [D19P], the figure is 2.41. As to VSHVFMLLFNVKSPTDIQLSSIIR [D19L], the protein stability index is 1.89. As to VSHVFMLLFNVKSPTDIQQSSIIR [D19Q], the protein stability index turned out to be 2.96.

For the variant VSHVFMLLFNVKSPTDIQDSSIYR [I23Y], the protein stability index is 3.9. Consider VSHVFMLLFNVKSPTDIQDSSINR [I23N], for which the protein stability index turned out to be 4.01. For VSHVFMLLFNVKSPTDIQDSSIGR [I23G], the protein stability index amounted to 2.5. VSHVFMLLFNVKSPTDIQDSSIMR [I23M]: the protein stability index came out at 4.19. Consider VSHVFMLLFNVKSPTDIQDSSIRR [I23R], for which the protein stability index stood at 2.85. On to VSHVFMLLFNVKSPTDIQDSSIAR [I23A], for which the protein stability index was found to be 4.9. For VSHVFMLLFNVKSPTDIQDSSIDR [I23D], the protein stability index was found to be 2.83. As to VSHVFMLLFNVKSPTDIQDSSIER [I23E], the protein stability index amounted to 1.89. Under VSHVFMLLFNVKSPTDIQDSSISR [I23S] stands 2.33; under VSHVFMLLFNVKSPTDIQDSSILR [I23L], 5.03.

Turning to VSHVFMLLFNVKSPTDIQDSSIKR [I23K], the protein stability index was 1.4. In the case of VSHVFMLLFNVKSPTDIQDSSIFR [I23F], the protein stability index is 4.66.

With VSHVFMLLFNVKSPTDIQDSSIWR [I23W], the protein stability index worked out at 2.86.

With VSHVFMLLFNVKSPTDIQDSSITR [I23T], the protein stability index came to 2.43. As to VSHVFMLLFNVKSPTDIQDSSIVR [I23V], the protein stability index stood at 2.75. Consider VSHVFMLLFNVKSPTDIQDSSIHR [I23H], for which the protein stability index worked out at 2.28.

In the case of VSHVFMLLFNVKSPTDIQDSSIQR [I23Q], the protein stability index was found to be 2.79.

As for VSHVFMLLFNVKSPTDIQDSSIPR [I23P], the protein stability index amounted to 1.33.

Regarding VSHVFMLLFNVKSPTDIQDSSVIR [I22V], the protein stability index was 3.37. As to VSHVFMLLFNVKSPTDIQDSSNIR [I22N], the protein stability index came out at 1.66.

Turning to VSHVFMLLFNVKSPTDIQDSSRIR [I22R], the protein stability index came to 1.6. VSHVFMLLFNVKSPTDIQDSSFIR [I22F]: the protein stability index stood at 2.15. In the case of VSHVFMLLFNVKSPTDIQDSSTIR [I22T], the protein stability index was 2.35. VSHVFMLLFNVKSPTDIQDSSDIR [I22D]: the protein stability index is 2.8. As for VSHVFMLLFNVKSPTDIQDSSYIR [I22Y], the figure is 2.62; as for VSHVFMLLFNVKSPTDIQDSSPIR [I22P], 3.69; as for VSHVFMLLFNVKSPTDIQDSSWIR [I22W], 2.17. In the case of VSHVFMLLFNVKSPTDIQDSSQIR [I22Q], the protein stability index stood at 2.63. Regarding VSHVFMLLFNVKSPTDIQDSSLIR [I22L], the protein stability index came out at 2.98. As for VSHVFMLLFNVKSPTDIQDSSCIR [I22C], the figure is 2.08; as for VSHVFMLLFNVKSPTDINDSSIIR [Q18N], 1.19. As to VSHVFMLLFNVKSPTDIHDSSIIR [Q18H], the protein stability index turned out to be 2.48. For VSHVFMLLFNVKSPTDIDDSSIIR [Q18D], the protein stability index is 4.62. On to VSHVFMLLFNVKSPTDIADSSIIR [Q18A], for which the protein stability index amounted to 3.32. Under VSHVFMLLFNVKSPTDICDSSIIR [Q18C] stands 2.77; under VSHVFMLLFNVKSPTDIPDSSIIR [Q18P], 3.69.

For VSHVFMLLFNVKSPTDIVDSSIIR [Q18V], the protein stability index worked out at 3.53.

As for VSHVFMLLFNVKSPTDIWDSSIIR [Q18W], the protein stability index came to 3.42.

On to VSHVFMLLFNVKSPTDIFDSSIIR [Q18F], for which the protein stability index was determined as 2.75. VSHVFMLLFNVKSPTDIEDSSIIR [Q18E]: the protein stability index was 2.79. On to VSHVFMLLFNVKSPTDIYDSSIIR [Q18Y], for which the protein stability index turned out to be 3.89. In the case of VSHVFMLLFNVKSPTDISDSSIIR [Q18S], the protein stability index is 3.12. In the case of VSHVFMLLFNVKSPTDITDSSIIR [Q18T], the protein stability index was determined as 2.57. As to VSHVFMLLFNVKSPTDIKDSSIIR [Q18K], the protein stability index turned out to be 2.82. VSHVFMLLFNVKSPTDIQDSTIIR [S21T]: the protein stability index is 3.42. As for VSHVFMLLFNVKSPTDIQDSQIIR [S21Q], the protein stability index stood at 4.13.

VSHVFMLLFNVKSPTDIQDSKIIR [S21K]: the protein stability index worked out at 1.84. Under VSHVFMLLFNVKSPTDIQDSHIIR [S21H] stands 2.35; under VSHVFMLLFNVKSPTDIQDSWIIR [S21W], 3.54; under VSHVFMLLFNVKSPTDIQDSFIIR [S21F], 3.07. As to VSHVFMLLFNVKSPTDIQDSCIIR [S21C], the protein stability index amounted to 3.76.

In the case of VSHVFMLLFNVKSPTDIQDSGIIR [S21G], the protein stability index was 3.46. For the variant VSHVFMLLFNVKSPTDIQDSIIIR [S21I], the protein stability index came to 2.74. Under VSHVFMLLFNVKSPTDIQDSVIIR [S21V] stands 2.27. Take VSHVFMLLFNVKSPTDIQDSYIIR [S21Y]: the protein stability index was 3.45. With VSHVFMLLFNVKSPTDIQDSMIIR [S21M], the protein stability index was 2.9. Consider VSHVFMLLFNVKSPTDQQDSSIIR [I17Q], for which the protein stability index worked out at 1.58. Under VSHVFMLLFNVKSPTDRQDSSIIR [I17R] stands 3.58. Under VSHVFMLLFNVKSPTDYQDSSIIR [I17Y] stands 1.66; under VSHVFMLLFNVKSPTDTQDSSIIR [I17T], 2.71. Regarding VSHVFMLLFNVKSPTDWQDSSIIR [I17W], the protein stability index came to 3.63. Consider VSHVFMLLFNVKSPTDVQDSSIIR [I17V], for which the protein stability index came to 2.81. VSHVFMLLFNVKSPTDNQDSSIIR [I17N]: the protein stability index was determined as 2.1. For VSHVFMLLFNVKSPTDSQDSSIIR [I17S], the protein stability index was 1.18. In the case of VSHVFMLLFNVKSPTDPQDSSIIR [I17P], the protein stability index stood at 2.88. With VSHVFMLLFNVKSPTDIQDSSIIY [R24Y], the protein stability index is 2.58.

Turning to VSHVFMLLFNVKSPTDIQDSSIIT [R24T], the protein stability index came to 3.31. As for VSHVFMLLFNVKSPTDIQDSSIIV [R24V], the figure is 3.67. Regarding VSHVFMLLFNVKSPTDIQDSSIIF [R24F], the protein stability index was 1.82.

Take VSHVFMLLFNVKSPTDIQDSSIIE [R24E]: the protein stability index is 2.74. VSHVFMLLFNVKSPTDIQDSSIIH [R24H]: the protein stability index turned out to be 3.13. Consider VSHVFMLLFNVKSPTDIQDSSIIS [R24S], for which the protein stability index was 3.05. Under VSHVFMLLFNVKSPTDIQDSSIIL [R24L] stands 2.66. For the variant VSHVFMLLFNVKSPTDIQDSSIIN [R24N], the protein stability index was 3.13. For VSHVFMLLFNVKSPTDIQDSSIIG [R24G], the protein stability index amounted to 3.07. Take VSHVFMLLFNVKSPTDIQDSSIIW [R24W]: the protein stability index was found to be 4.43. Consider VSHVFMLLFNVKSPTDIQDSSIIK [R24K], for which the protein stability index was 3.56. As to VSHVFMLLFNVKSPTDIQDSSIIQ [R24Q], the protein stability index was determined as 4.67. In the case of VSHVFMLLFNVKSPTDIQDFSIIR [S20F], the protein stability index was 2.79. Take VSHVFMLLFNVKSPTDIQDISIIR [S20I]: the protein stability index worked out at 2.98.
